B1: GST–KHC(876-917) (domain or fragment)
chain: not shown
notes: source: E. coli BL21(DE3), purified (glutathione–Sepharose beads)
B2: GST–KHC(815-917) (domain or fragment)
chain: not shown
notes: as for B1
B3: SKIP(1-310) (domain or fragment, UniProt Q8IWE5 1-310, looked up)
chain: MEPGEVKDRILENISLSVKKLQSYFAACEDEIPAIRNHDKVLQRLCEHLDHALLYGLQDLSSGYWVLVVHFTRREAIKQIEVLQHVATNLGRSRAWLYLALNENSLESYLRLFQENLGLLHKYYVKNALVCSHDHLTLFLTLVSGLEFIRFELDLDAPYLDLAPYMPDYYKPQYLLDFEDRLPSSVHGSDSLSLNSFNSVTSTNLEWDDSAIAPSSEDYDFGDVFPAVPSVPSTDWEDGDLTDTVSGPRSTASDLTSSKASTRSPTQRQNPFNEEPAETVSSSDTTPVHTTSQEKEEAQALDPPDACTEL
notes: SKIP (PLEKHM2), residues 1-310; also called SKIP(1-310) with GST removed by 3C protease; source: E. coli, purified as a GST fusion, GST cleaved with 3C protease
B4: GST–KHC(815-955) (domain or fragment)
chain: not shown
notes: 3C protease site between GST and KHC (pMW-GST); source: E. coli BL21(DE3), purified (glutathione–Sepharose beads)

Holding throughout (details): both partners purified
The target in assay [1] is B3. In words: pull-down; GST–KHC truncations (0.5 nmol) on glutathione–Sepharose beads incubated with 300 μl of 1.2 μM SKIP(1-310) for 2 h at 4°C; 25 mM HEPES pH 7.5, 150 mM NaCl, 5 mM β-mercaptoethanol; Coomassie-stained SDS-PAGE.
The target in assay [2] is B4. In words: pull-down; GST–KHC(815-955) (0.5 nmol) on glutathione beads incubated with increasing concentrations of SKIP(1-310) in solution (up to 3.5 μM); SDS-PAGE, Coomassie, densitometry; one-site specific binding model with Hill slope; non-equilibrium, value to be interpreted with caution.
The target of assay [3] is B3. Described as above.

Chain of GST–KHC(815-955) (P56536 815-955): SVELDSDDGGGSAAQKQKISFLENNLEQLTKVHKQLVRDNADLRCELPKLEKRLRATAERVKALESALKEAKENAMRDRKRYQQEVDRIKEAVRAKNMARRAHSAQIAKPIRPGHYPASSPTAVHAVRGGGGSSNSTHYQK

In the case of B1, in assay [1], the binding result was “binds”.

For the molecule B2, in assay [1], the binding result is recorded as “binds”.

As for B3, in assay [2], the “stoichiometry N” value amounted to 1.

For the molecule B4, in assay [3], the Kd is approximately 1.5 µM.

Source of the values: article PMC5450233, “SKIP controls lysosome positioning using a composite kinesin-1 heavy and light chain-binding domain” (Journal of Cell Science, 2017).
